The record followed here is article PMC12057046 (2025).

The labels stand for the following.
B1: GST-tagged USP8 MIT domain (1-142) [human] / DBP 116-131 peptide, cellulose-bound (SPOT array) [human] (parent complex)
chain 1: MPAVASVPKELYLSSSLKDLNKKTEVKPEKISTKSYVHSALKIFKTAEECRLDRDEERAYVLYMKYVTVYNLIKKRPDFKQQQDYFHSILGPGNIKKAVEEAERLSESLKLRYEEAEVRKKLEEKDRQEEAQRLQQKRQETG
chain 2: YVDLDAFLLEHGLPPS

In this assay the parent is B1. Description: SPOT array alanine scanning; read off a plot.
Turning to chain 2 YVDLDAFLLEHGLAPS [chain 2 P14A], the screen value is ~-5%.

In the case of chain 2 YVDLDAFLLEHALPPS [chain 2 G12A], the screen value is ~-87%. To chain 2 YVDLDAFLLEHGAPPS [chain 2 L13A] belongs ~-22%.
